From PMC2935386, “Dissecting the Relation between a Nuclear Receptor and GATA: Binding Affinity Studies of Thyroid Hormone Receptor and GATA2 on TSHβ Promoter”

Tests used:
[1] = target: T1, TRβ1 DBD-LBD (TR DL, TRβ1ΔAB) (human, UniProt P10828 102-461); assay: fluorescence anisotropy; T3; Hill n 2±0.4; Fluorescence anisotropy: 10 nM DNA, 20 mM Hepes pH 8.0, 50 mM NaCl, 1 mM MgCl2, 3 mM DTT, 5% glycerol, 10°C; agarose gel 1.3% in 0.5x TBE; conditions: protein: recombinant; tags: His (pET28a); chain copies: 2; label: 5' fluorescein (FITC) on forward strand; blunt
T1 sequence: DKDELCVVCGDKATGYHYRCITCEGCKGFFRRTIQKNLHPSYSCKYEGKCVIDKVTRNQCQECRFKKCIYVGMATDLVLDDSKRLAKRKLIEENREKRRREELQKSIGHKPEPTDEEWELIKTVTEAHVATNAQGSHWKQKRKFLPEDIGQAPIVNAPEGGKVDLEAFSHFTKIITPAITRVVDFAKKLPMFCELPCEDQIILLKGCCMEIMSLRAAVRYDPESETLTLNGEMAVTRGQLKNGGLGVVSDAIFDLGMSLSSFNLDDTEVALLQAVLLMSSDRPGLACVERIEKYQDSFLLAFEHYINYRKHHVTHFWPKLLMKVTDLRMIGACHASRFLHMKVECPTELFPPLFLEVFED

[2] = target: T1, TRβ1 DBD-LBD (TR DL, TRβ1ΔAB); assay: fluorescence anisotropy; no T3; Hill n 1±0.1; Fluorescence anisotropy: 10 nM DNA, 20 mM Hepes pH 8.0, 50 mM NaCl, 1 mM MgCl2, 3 mM DTT, 5% glycerol, 10°C; agarose gel 1.3% in 0.5x TBE; conditions: protein: recombinant; tags: His (pET28a); chain copies: 2; label: 5' fluorescein (FITC) on forward strand; blunt
[3] = target: T1, TRβ1 DBD-LBD (TR DL, TRβ1ΔAB); assay: fluorescence anisotropy; no T3; Hill n 3.5±0.1; Fluorescence anisotropy: 10 nM DNA, 20 mM Hepes pH 8.0, 50 mM NaCl, 1 mM MgCl2, 3 mM DTT, 5% glycerol, 10°C; agarose gel 1.3% in 0.5x TBE; conditions: protein: recombinant; tags: His (pET28a); chain copies: 2; label: 5' fluorescein (FITC) on forward strand; blunt
GATA2-Zf [4] = target: T2, GATA2-Zf (UniProt P23769 291-412); assay: fluorescence anisotropy; Hill n 3.1±0.4; Fluorescence anisotropy: 10 nM DNA, 20 mM Hepes pH 8.0, 50 mM NaCl, 1 mM MgCl2, 3 mM DTT, 5% glycerol, 10°C; agarose gel 1.3% in 0.5x TBE; conditions: protein: recombinant; tags: His, thrombin treated; label: 5' fluorescein (FITC) on forward strand; blunt
[5] = target: T1, TRβ1 DBD-LBD (TR DL, TRβ1ΔAB); assay: fluorescence anisotropy; no T3; up to 10000 nM; Fluorescence anisotropy: 10 nM DNA, 20 mM Hepes pH 8.0, 50 mM NaCl, 1 mM MgCl2, 3 mM DTT, 5% glycerol, 10°C; agarose gel 1.3% in 0.5x TBE; conditions: protein: recombinant; tags: His (pET28a); chain copies: 2; label: 5' fluorescein (FITC) on forward strand; blunt
TRβ1 DBD (TRβ1ΔAB/EF) = target: T3, TRβ1 DBD (TRβ1ΔAB/EF) (human, UniProt P10828 102-198); assay: gel filtration + agarose EMSA; 100 uM protein; DNA label not stated; Fluorescence anisotropy: 10 nM DNA, 20 mM Hepes pH 8.0, 50 mM NaCl, 1 mM MgCl2, 3 mM DTT, 5% glycerol, 10°C; agarose gel 1.3% in 0.5x TBE; conditions: protein: recombinant; tags: His (pET28a); label: 5' fluorescein (FITC) on forward strand; blunt
T3 sequence: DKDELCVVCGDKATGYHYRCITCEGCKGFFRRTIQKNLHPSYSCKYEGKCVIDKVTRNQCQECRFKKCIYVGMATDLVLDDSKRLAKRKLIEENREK

GATA2-Zf [6] = target: T2, GATA2-Zf; assay: fluorescence anisotropy; Hill n 1.3±0.4; Fluorescence anisotropy: 10 nM DNA, 20 mM Hepes pH 8.0, 50 mM NaCl, 1 mM MgCl2, 3 mM DTT, 5% glycerol, 10°C; agarose gel 1.3% in 0.5x TBE; conditions: protein: recombinant; tags: His, thrombin treated; label: 5' fluorescein (FITC) on forward strand; blunt

T2 sequence (P23769 291-412): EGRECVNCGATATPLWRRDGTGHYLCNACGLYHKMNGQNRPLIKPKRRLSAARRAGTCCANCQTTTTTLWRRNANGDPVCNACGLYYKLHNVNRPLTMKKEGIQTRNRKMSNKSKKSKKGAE

B1: DR4 TRE (dsDNA)
DNA 1: AGTTCAGGTCACAGGAGGTCAGAG
DNA 2: CTCTGACCTCCTGTGACCTGAACT
- Kd [1]: 1980 ± 295 nM
- Kd [2]: 2040 ± 266 nM

B2: TSH NRE (dsDNA)
DNA 1: TGGGTCACCACAGCATCTGCTCACCAATGCAAAGT
DNA 2: ACTTTGCATTGGTGAGCAGATGCTGTGGTGACCCA
- Kd [3]: 316 ± 29 nM

B3: TSH GATA-RE (dsDNA)
DNA 1: TCAATAGATGCTTTTCAGATAAGAA
DNA 2: TTCTTATCTGAAAAGCATCTATTGA
- Kd (GATA2-Zf [4]): 689 ± 38.7 nM
- binding result [5]: no binding
- binding result (TRβ1 DBD (TRβ1ΔAB/EF)): binds

B4: GATA-RE (canonical) (dsDNA)
DNA 1: CACTTGATAACAGAAAGTGATAACTCT
DNA 2: AGAGTTATCACTTTCTGTTATCAAGTG
- Kd (GATA2-Zf [6]): 14.9 ± 1.5 nM
- binding result [5]: no binding
